From patent US20150299296A1 (Chugai, published 2015) come the findings set out here.

Where a chain is given by its changes, count along the chain named.

What all share (assay): SPR; IL6R-BF648/IL6R-L=100
Assay [1] has as its target T1, human FcγRIIa type H extracellular domain with C-terminal His tag (human, UniProt P12318 34-217).
T1 construct: extracellular domain; also called FcgRIIaH; FcγRIIa H
T1 sequence (looked up): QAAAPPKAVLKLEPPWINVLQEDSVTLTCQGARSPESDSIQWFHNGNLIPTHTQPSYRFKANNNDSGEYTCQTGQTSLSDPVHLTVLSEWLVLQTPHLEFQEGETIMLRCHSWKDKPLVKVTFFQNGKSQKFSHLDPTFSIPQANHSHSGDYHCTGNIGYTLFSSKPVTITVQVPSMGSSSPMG
As for the experimental part:
(§1) IL6R-L was utilized as the common antibody L chain for all of the antibodies, the antibodies were expressed and purified according to the method of Reference Example 1, and binding to each of the FcγRs (FcγRIa, FcγRIIa type H, FcγRIIa type R, FcγRIIb, and FcγRIIIa type V) was comprehensively evaluated by the method of Reference Example 2.
(§2) Relative binding activities were calculated for the results of analyzing interactions with the respective FcγRs according to the following method.

For assay [2], the target named is T2, human FcγRIa extracellular domain with C-terminal His tag (human, UniProt P12314 16-292).
T2 construct: Whole entry named; also called FcgRIa; FcgIa
T2 sequence (P12314 16-292): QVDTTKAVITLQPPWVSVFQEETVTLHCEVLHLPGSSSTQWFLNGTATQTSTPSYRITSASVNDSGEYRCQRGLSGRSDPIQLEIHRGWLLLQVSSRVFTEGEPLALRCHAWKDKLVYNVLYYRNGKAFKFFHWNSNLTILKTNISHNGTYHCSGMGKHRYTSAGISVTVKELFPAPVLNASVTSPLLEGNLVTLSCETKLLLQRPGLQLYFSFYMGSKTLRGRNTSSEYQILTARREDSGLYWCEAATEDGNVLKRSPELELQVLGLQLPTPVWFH
As for the experimental part: as §1, §2

The target in assay [3] is T3, human FcγRIIb extracellular domain with C-terminal His tag (human, UniProt P31994 43-217).
T3 construct: extracellular domain; For crystals it was expressed with kifunensine and trimmed with Endo F1; also called FcgRIIb; FcγRIIb extracellular region
T3 sequence (looked up): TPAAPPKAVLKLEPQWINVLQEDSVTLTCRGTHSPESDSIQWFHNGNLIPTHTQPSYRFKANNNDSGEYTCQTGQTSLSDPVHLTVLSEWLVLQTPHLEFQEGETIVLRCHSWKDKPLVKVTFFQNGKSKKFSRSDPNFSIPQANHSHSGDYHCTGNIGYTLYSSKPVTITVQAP
As for the experimental part: as §1, §2

Assay [4] deals with T4, human FcγRIIIa type V extracellular domain with C-terminal His tag (human, UniProt P08637 17-208).
T4 construct: extracellular domain; also called FcgRIIIaV; FcγRIIIaV
T4 sequence (P08637 17-208 F176V): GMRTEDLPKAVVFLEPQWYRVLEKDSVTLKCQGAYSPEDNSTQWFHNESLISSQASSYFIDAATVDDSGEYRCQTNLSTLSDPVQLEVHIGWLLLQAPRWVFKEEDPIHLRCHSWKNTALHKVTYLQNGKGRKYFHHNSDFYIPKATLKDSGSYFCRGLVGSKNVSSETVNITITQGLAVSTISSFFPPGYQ
As for the experimental part:
as §1, §2

B1: IL6R-BP201/IL6R-L (antibody, human IgG1, kappa, name in EU numbering)
heavy: QVQLQESGPGLVKPSETLSLTCAVSGHSISHDHAWSWVRQPPGEGLEWIGFISYSGITNYNPSLQGRVTISRDNSKNTLYLQMNSLRAEDTAVYYCARSLARTTAMDYWGEGTLVTVSSASTKGPSVFPLAPSSKSTSGGTAALGCLVKDYFPEPVTVSWNSGALTSGVHTFPAVLQSSGLYSLSSVVTVPSSSLGTQTYICNVNHKPSNTKVDKKVEPKSCDKTHTCPPCPAPDLLGDDSVFLFPPKPKDTLMISRTPEVTCVVVDVSHEDGEVKFNWYVDGVEVHNAKTKPREEQYNSTYRVVSVLTVLHQDWLNGKEYKCKVSNKALPRPIEKTISKAKGQPREPQVYTLPPSRDELTKNQVSLTCLVKGFYPSDIAVEWESNGQPENNYKTTPPVLDSDGSFFLYSKLTVDKSRWQQGNVFSCSVMHEALHNHYTQESLSLSP
light: not shown
As to B1, the relative binding activity in assay [1] amounted to 359; in assay [2] it was 57; in assay [3], 186.

B2: IL6R-BP082/IL6R-L (antibody, human IgG1, kappa, name in EU numbering)
heavy: B1 heavy with D239G, G273P, R332K
light: not shown
On to B2, for which the relative binding activity is 106 in assay [1], 74 in assay [2], 87 in assay [4] and 136 in assay [3].

B3: IL6R-BP210/IL6R-L (antibody, human IgG1, kappa, name in EU numbering)
heavy: B1 heavy with D235E, H270D
light: not shown
For B3, the relative binding activity in assay [1] is 279; in assay [2], 57; in assay [3] it was 187.

B4: IL6R-BP211/IL6R-L (antibody, human IgG1, kappa, name in EU numbering)
heavy: B1 heavy with D239G, H270D, K328A
light: not shown
Regarding B4, the relative binding activity in assay [2] was found to be 128; in assay [4], 87; in assay [3], 165.

B5: IL6R-BP178/IL6R-L (antibody, human IgG1, kappa, name in EU numbering)
heavy: B1 heavy with R332K
light: not shown
For the molecule B5, the results for the relative binding activity in assay [1] and in assay [3] were 259 and 179, respectively.

B6: IL6R-BP190/IL6R-L (antibody, human IgG1, kappa, name in EU numbering)
heavy: B1 heavy with D235E, H270D, R332K
light: not shown
For B6, the figures for the relative binding activity in assay [1], in assay [2] and in assay [4] were 224, 50 and 155, respectively.

B7: IL6R-BP202/IL6R-L (antibody, human IgG1, kappa, name in EU numbering)
heavy: B1 heavy with D235E, K328A
light: not shown
Regarding B7, the relative binding activity in assay [1] came out at 285; in assay [2], 43; in assay [3] it was 185.

B8: IL6R-BP130/IL6R-L (antibody, human IgG1, kappa, name in EU numbering)
heavy: B1 heavy with D239G, G273P, V325M, R332K
light: not shown
Consider B8, for which the relative binding activity turned out to be 224 in assay [1] and 104 in assay [2].

B9: IL6R-BP132/IL6R-L (antibody, human IgG1, kappa, name in EU numbering)
heavy: B1 heavy with D239G, G273P, K328A, R332K
light: not shown
Turning to B9, the relative binding activity in assay [1] turned out to be 130; in assay [2], 91; in assay [3] it was 150.

B10: IL6R-BP182/IL6R-L (antibody, human IgG1, kappa, name in EU numbering)
heavy: B1 heavy with D239G, Y298D, R332K
light: not shown
With B10, the figures for the relative binding activity in assay [1], in assay [2] and in assay [3] were 139, 95 and 173, respectively.

B11: IL6R-BP146/IL6R-L (antibody, human IgG1, kappa, name in EU numbering)
heavy: B1 heavy with D235E, L236Y, G273P, K328A, R332A
light: not shown
Consider B11, for which the results for the relative binding activity in assay [1] and in assay [3] were 203 and 156, respectively.

B12: IL6R-2B253/IL6R-L (antibody, human IgG1, kappa, name in EU numbering)
heavy: B1 heavy with D239G, G273P, V325M, R332A
light: not shown
On to B12, for which the relative binding activity came out at 207 in assay [1], 155 in assay [2], 126 in assay [4] and 156 in assay [3].

B13: IL6R-BP176/IL6R-L (antibody, human IgG1, kappa, name in EU numbering)
heavy: B1 heavy with D239G, G273P, K328D, R332K
light: not shown
Take B13: the relative binding activity in assay [1] stood at 128; in assay [2], 102; in assay [3] it was 147.

B14: IL6R-BP083/IL6R-L (antibody, human IgG1, kappa, name in EU numbering)
heavy: B1 heavy with D235E, D239G, G273P, Y298D, R332K
light: not shown
Take B14: the relative binding activity came to 50 in assay [2], 107 in assay [4] and 122 in assay [3].

B15: IL6R-BP195/IL6R-L (antibody, human IgG1, kappa, name in EU numbering)
heavy: B1 heavy with L236Y, H270D, Y298D, K328A, R332K
light: not shown
notes: Same printed alterations as IL6R-BP197
With B15, the relative binding activity in assay [1] stood at 344; in assay [2], 68; in assay [4], 221.

B16: IL6R-2B261/IL6R-L (antibody, human IgG1, kappa, name in EU numbering)
heavy: B1 heavy with D239G, G273P, Y298D, R332A
light: not shown
Regarding B16, the results for the relative binding activity in assay [2], in assay [4] and in assay [3] were 100, 87 and 115, respectively.

B17: IL6R-BP205/IL6R-L (antibody, human IgG1, kappa, name in EU numbering)
heavy: B1 heavy with D239G, Y298D
light: not shown
Regarding B17, the relative binding activity in assay [1] is 108; in assay [2] it was 97; in assay [3], 167.

B18: IL6R-BP191/IL6R-L (antibody, human IgG1, kappa, name in EU numbering)
heavy: B1 heavy with D239G, H270D, K328A, R332K
light: not shown
Consider B18, for which the relative binding activity amounted to 145 in assay [1], 125 in assay [2] and 142 in assay [4].

B19: IL6R-BP181/IL6R-L (antibody, human IgG1, kappa, name in EU numbering)
heavy: B1 heavy with D239G, K328A, R332K
light: not shown
B19 returned a relative binding activity in assay [4] of 122.

B20: IL6R-BP204/IL6R-L (antibody, human IgG1, kappa, name in EU numbering)
heavy: B1 heavy with D239G, K328A
light: not shown
B20: the relative binding activity in assay [1] worked out at 137; in assay [2], 110; in assay [3], 165.

B21: IL6R-BP084/IL6R-L (antibody, human IgG1, kappa, name in EU numbering)
heavy: B1 heavy with D235E, D239G, G273P, V325M, R332K
light: not shown
Take B21: the relative binding activity in assay [1] is 162; in assay [2] it was 109; in assay [4], 106; in assay [3], 141.

B22: IL6R-BP152/IL6R-L (antibody, human IgG1, kappa, name in EU numbering)
heavy: B1 heavy with L236Y, G273P, Y298D, K328A
light: not shown
For B22, the relative binding activity was 548 in assay [1], 34 in assay [2] and 178 in assay [3].

B23: IL6R-BP212/IL6R-L (antibody, human IgG1, kappa, name in EU numbering)
heavy: B1 heavy with D239G, H270D, Y298D
light: not shown
With B23, the relative binding activity in assay [1] is 135; in assay [2], 117; in assay [3], 173.

B24: IL6R-BP193/IL6R-L (antibody, human IgG1, kappa, name in EU numbering)
heavy: B1 heavy with D239G, H270D, R332K
light: not shown
As for B24, the relative binding activity in assay [1] came to 154; in assay [2] it was 113; in assay [3] it was 173.

B25: IL6R-BP085/IL6R-L (antibody, human IgG1, kappa, name in EU numbering)
heavy: B1 heavy with D235E, G273P, R332K
light: not shown
Take B25: the relative binding activity turned out to be 158 in assay [1], 19 in assay [2], 104 in assay [4] and 152 in assay [3].

B26: IL6R-BP151/IL6R-L (antibody, human IgG1, kappa, name in EU numbering)
heavy: B1 heavy with L236Y, G273P, K328A
light: not shown
Regarding B26, the relative binding activity is 621 in assay [1], 39 in assay [2] and 221 in assay [4].

B27: IL6R-BP086/IL6R-L (antibody, human IgG1, kappa, name in EU numbering)
heavy: B1 heavy with D235E, D239G, G273P, K328A, R332K
light: not shown
For the molecule B27, the relative binding activity in assay [1] amounted to 116; in assay [2] it was 72; in assay [4] it was 123; in assay [3] it was 137.

B28: IL6R-BP131/IL6R-L (antibody, human IgG1, kappa, name in EU numbering)
heavy: B1 heavy with G273P, R332K
light: not shown
Consider B28, for which the relative binding activity in assay [1] is 253; in assay [2], 33; in assay [4] it was 118.

B29: IL6R-BP188/IL6R-L (antibody, human IgG1, kappa, name in EU numbering)
heavy: B1 heavy with H270D, R332K
light: not shown
On to B29, for which the relative binding activity stood at 74 in assay [2] and 179 in assay [3].
